Assay results reported in paper PMC3204382.

Experiments:
FadR_ec = FadR_ec (Escherichia coli, UniProt P0A8V6 1-239); assay: EMSA
FadR_vc = FadR_vc (Vibrio cholerae, UniProt Q9KQU8 1-279); assay: EMSA
Sequence of FadR_vc (Q9KQU8 whole entry): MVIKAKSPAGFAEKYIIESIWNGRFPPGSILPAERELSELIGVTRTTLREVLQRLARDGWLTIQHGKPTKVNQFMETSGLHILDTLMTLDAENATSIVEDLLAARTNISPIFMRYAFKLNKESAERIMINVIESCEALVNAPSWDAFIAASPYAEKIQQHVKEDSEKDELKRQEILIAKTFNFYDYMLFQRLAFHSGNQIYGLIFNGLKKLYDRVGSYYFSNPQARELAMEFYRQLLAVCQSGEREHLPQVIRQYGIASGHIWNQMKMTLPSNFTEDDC

Sequence of FadR_ec (P0A8V6 whole entry): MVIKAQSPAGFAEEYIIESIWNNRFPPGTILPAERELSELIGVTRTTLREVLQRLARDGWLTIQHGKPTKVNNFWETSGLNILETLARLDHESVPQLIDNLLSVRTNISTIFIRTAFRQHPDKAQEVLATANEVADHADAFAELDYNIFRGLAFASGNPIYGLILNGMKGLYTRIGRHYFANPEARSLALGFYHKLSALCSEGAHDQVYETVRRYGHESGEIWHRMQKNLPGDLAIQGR

B1: plsB_vc FadR site probe (39 bp) (dsDNA)
DNA 1: TTAAATTAAAAGGTTTGACCAGTTTCTGGTATTCTTGGC
DNA 2: GCCAAGAATACCAGAAACTGGTCAAACCTTTTAATTTAA
**Q.** What does the source list for B1?
**A.** binding result (FadR_ec): binds; binding result (FadR_vc): binds
